From patent publication US20240139265A1 (published 2024) come the findings set out here.

The chains are these.
B1: P87 9-mer neoantigen peptide FLFLLLPLS (AR-Intron splice variant) (peptide)
peptide: FLFLLLPLS
notes: Synthetic 9-mer
B2: P82 9-mer neoantigen peptide RVGNCKHLK (AR-V7 splice variant) (peptide)
peptide: RVGNCKHLK
notes: Synthetic 9-mer
B3: P58 9-mer neoantigen peptide HVPKILSGK (AR (Q903H) missense) (peptide)
peptide: HVPKILSGK
notes: Synthetic 9-mer
B4: P59 9-mer neoantigen peptide NMVENGCYL (FOXA1 (F254V) missense) (peptide)
peptide: NMVENGCYL
notes: Synthetic 9-mer
B5: P16 9-mer neoantigen peptide STRRAVRRM (MSMB-NCOA4 fusion) (peptide)
peptide: STRRAVRRM
notes: Synthetic 9-mer
B6: P77 9-mer neoantigen peptide FFKRAAEGF (AR-V3 splice variant) (peptide)
peptide: FFKRAAEGF
notes: Synthetic 9-mer
B7: P46 9-mer neoantigen peptide CPMSRLRLA (TP53 (R213D) frameshift) (peptide)
peptide: CPMSRLRLA
notes: Synthetic 9-mer
B8: P56 9-mer neoantigen peptide RAKCKFSIL (SPOP(F102C) missense) (peptide)
peptide: RAKCKFSIL
notes: Synthetic 9-mer
B9: P61 9-mer neoantigen peptide CYLGRQKRF (FOXA1.p.R261G missense) (peptide)
peptide: CYLGRQKRF
notes: Synthetic 9-mer
B10: P73 9-mer neoantigen peptide LLERNSFEV (TP53 (G266E) missense) (peptide)
peptide: LLERNSFEV
notes: Synthetic 9-mer
B11: P19 9-mer neoantigen peptide IPVLTRWPL (TMEM222-LOC644961 fusion) (peptide)
peptide: IPVLTRWPL
notes: Synthetic 9-mer
B12: P27 9-mer neoantigen peptide FPVGAEGTF (FAM126B-ORC2 fusion) (peptide)
peptide: FPVGAEGTF
notes: Synthetic 9-mer
B13: P35 9-mer neoantigen peptide NSKMALNSL (TMPRSS2-ERG fusion) (peptide)
peptide: NSKMALNSL
notes: Synthetic 9-mer
B14: P22 9-mer neoantigen peptide QLIAMDSAI (SLC45A3-ELK4 fusion) (peptide)
peptide: QLIAMDSAI
notes: Synthetic 9-mer
B15: P50 9-mer neoantigen peptide IQYSCMGLM (AR (W742C) missense) (peptide)
peptide: IQYSCMGLM
notes: Synthetic 9-mer
B16: P60 9-mer neoantigen peptide YLRRQKRLK (FOXA1.p.F266L missense) (peptide)
peptide: YLRRQKRLK
notes: Synthetic 9-mer
B17: P98 9-mer neoantigen peptide IVWWCPMSR (TP53 (R213D) frameshift) (peptide)
peptide: IVWWCPMSR
notes: Synthetic 9-mer
B18: P37 9-mer neoantigen peptide GVLRRLLCR (TSTD1-F11R fusion) (peptide)
peptide: GVLRRLLCR
notes: Synthetic 9-mer
B19: P97 9-mer neoantigen peptide LMAQRLLLR (FOXRED2-TXN2 fusion) (peptide)
peptide: LMAQRLLLR
notes: Synthetic 9-mer
B20: P17 9-mer neoantigen peptide RAVRRMNTF (MSMB-NOCA4 fusion) (peptide)
peptide: RAVRRMNTF
notes: Synthetic 9-mer

The experiment addresses T1, HLA-B*08:01 class I complex (biotinylated heavy chain with beta2-microglobulin) (human).
T1 construct: Conditional HLA class I complex loaded with a UV-labile peptide that is exchanged for the test peptide
As to the kind of experiment: UV peptide exchange + HLA class I ELISA; % of Pos control peptide.
Description: The exchange efficiency between the peptide of interest and Pos was analyzed using an HLA class I ELISA.
The UV control represented UV-irradiation of conditional HLA class I complex in the absence of a rescue peptide. […] The HLA class I ELISA is an enzyme immunoassay based on the detection of beta2-microglobulin (B2M) of (peptide-stabilized) HLA class I complexes. To this end streptavidin was bound onto polystyrene microtiter wells. […] Non-bound material was removed by washing. Subsequently, horseradish peroxidase (HRP)-conjugated antibody to human B2M was added. […] In the latter case B2M was removed during the washing step. After removal of non-bound HRP conjugate by washing, a substrate solution was added to the wells. A coloured product formed in proportion to the amount of intact HLA complex present in the samples. After the reaction was terminated by the addition of a stop solution, absorbance was measured in a microtiter plate reader.
For B1, the “exchange rate with Pos peptide” value came out at 3.1%. Regarding B2, the “exchange rate with Pos peptide” value was determined as 1.4%. Turning to B3, the “exchange rate with Pos peptide” value was found to be 5.3%. The figure for B4 is 5.5%; for B5 it is 6.2%; for B6 it is 3.4%. The value for B7 was 14.5%; that for B8 was 38%; that for B9 was 3.6%. The value for B10 was 2.6%; that for B11 was 14.5%. In the case of B12, the “exchange rate with Pos peptide” value came to 6.4%. The figure for B13 is 13.7%. The value for B14 was 3.9%; that for B15 was 4.7%; that for B16 was 10.2%. On to B17, for which the “exchange rate with Pos peptide” value was determined as 2.4%.

For B18, the “exchange rate with Pos peptide” value is 3.3%. The value for B19 was 2.7%; that for B20 was 9%.
